Starred links: 1 amine or outer side, 2 acyl side, 3 side chain; linkers in the order of their positions; H or OH if unused. Positions of bridges follow the written chain, without caps; N, C: chain ends. Non-standard residues stand in square brackets, D forms with d. Primed or numbered codes have the meaning given here. *: point of attachment. PyrS2″ = (S)-3-amino-1-((pent-4-en-1-yloxy)carbonyl)pyrrolidine-3-carboxylic acid (stapling residue), C=CCCCOC(=O)N1CC[C@@](N[*:1])(C(=O)[*:2])C1; B5(4) = 2,2-bis(4-pentenyl)glycine = 2-amino-2-(pent-4-en-1-yl)hept-6-enoic acid (stitching residue), C=CCCCC(CCCC=C)(N[*:1])C(=O)[*:2]; TfeGA = (S)-2-amino-3-((carboxymethyl)(2,2,2-trifluoroethyl)amino)propanoic acid, O=C([C@H](CN(CC(=O)[*:3])CC(F)(F)F)N[*:1])[*:2]; B5(3) = 2,2-bis(4-pentenyl)glycine (stitching residue), C=CCCCC(CCCC=C)(N[*:1])C(=O)[*:2]; Phe(2-Cl) = N[C@@H](Cc1ccccc1Cl)C(=O)O; Bta = N[C@@H](Cc1csc2ccccc12)C(=O)O; αAllylPro = C=CC[C@@]1(C(=O)O)CCCN1; tBuAla = CC(C)(C)C[C@H](N)C(=O)O; Leu(ol) = CC(C)C[C@H](N)CO; Alaol = C[C@@H](CO)N*
T1: beta-catenin in DLD1 TCF/LEF luciferase reporter cells (UniProt P35222 1-781)
T1 sequence (looked up): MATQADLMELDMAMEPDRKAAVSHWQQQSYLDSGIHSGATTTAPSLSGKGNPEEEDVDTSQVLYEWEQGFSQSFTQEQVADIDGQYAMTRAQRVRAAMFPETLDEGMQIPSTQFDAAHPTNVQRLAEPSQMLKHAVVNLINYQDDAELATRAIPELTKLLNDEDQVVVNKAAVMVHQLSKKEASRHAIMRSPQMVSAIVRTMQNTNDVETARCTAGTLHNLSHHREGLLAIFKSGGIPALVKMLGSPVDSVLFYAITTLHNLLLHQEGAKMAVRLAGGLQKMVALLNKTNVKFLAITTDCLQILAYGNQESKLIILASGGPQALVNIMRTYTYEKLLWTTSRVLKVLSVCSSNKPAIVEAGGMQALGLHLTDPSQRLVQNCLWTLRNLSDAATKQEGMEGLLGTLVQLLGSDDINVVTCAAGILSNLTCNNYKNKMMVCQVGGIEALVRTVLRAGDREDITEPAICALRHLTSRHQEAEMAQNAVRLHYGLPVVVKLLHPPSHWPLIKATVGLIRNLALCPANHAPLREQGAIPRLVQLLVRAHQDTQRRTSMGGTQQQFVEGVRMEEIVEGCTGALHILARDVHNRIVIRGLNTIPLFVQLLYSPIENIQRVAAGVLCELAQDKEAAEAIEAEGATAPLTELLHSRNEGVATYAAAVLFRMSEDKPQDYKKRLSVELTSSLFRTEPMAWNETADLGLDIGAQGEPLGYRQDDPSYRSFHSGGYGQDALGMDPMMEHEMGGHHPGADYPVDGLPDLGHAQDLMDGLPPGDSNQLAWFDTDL

T2: B-cat-Halo (beta-catenin HaloTag NanoBRET construct expressed in HEK293 cells) (UniProt P35222 1-781)
T2 sequence (looked up): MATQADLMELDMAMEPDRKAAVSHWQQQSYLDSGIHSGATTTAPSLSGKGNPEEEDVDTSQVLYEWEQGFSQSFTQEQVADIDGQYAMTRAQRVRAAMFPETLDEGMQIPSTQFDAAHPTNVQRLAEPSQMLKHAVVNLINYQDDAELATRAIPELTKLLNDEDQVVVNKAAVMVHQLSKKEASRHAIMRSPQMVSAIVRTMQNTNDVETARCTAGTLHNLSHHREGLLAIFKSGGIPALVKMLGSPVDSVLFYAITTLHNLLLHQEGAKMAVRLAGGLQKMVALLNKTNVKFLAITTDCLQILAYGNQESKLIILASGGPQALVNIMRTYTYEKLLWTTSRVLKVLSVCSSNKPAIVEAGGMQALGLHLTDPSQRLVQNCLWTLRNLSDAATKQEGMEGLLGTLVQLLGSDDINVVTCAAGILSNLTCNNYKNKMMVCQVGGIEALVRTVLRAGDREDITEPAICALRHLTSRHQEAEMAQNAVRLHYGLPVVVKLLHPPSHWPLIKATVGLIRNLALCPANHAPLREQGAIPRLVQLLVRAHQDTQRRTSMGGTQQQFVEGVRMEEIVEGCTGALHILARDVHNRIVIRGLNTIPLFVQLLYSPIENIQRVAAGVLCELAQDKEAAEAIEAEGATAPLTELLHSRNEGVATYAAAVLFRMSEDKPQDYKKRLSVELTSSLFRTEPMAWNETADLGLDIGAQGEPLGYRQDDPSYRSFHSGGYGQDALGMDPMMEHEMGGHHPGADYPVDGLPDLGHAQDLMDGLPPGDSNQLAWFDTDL

T3: B-cat-Halo (UniProt P35222 1-781)
T3 sequence (looked up): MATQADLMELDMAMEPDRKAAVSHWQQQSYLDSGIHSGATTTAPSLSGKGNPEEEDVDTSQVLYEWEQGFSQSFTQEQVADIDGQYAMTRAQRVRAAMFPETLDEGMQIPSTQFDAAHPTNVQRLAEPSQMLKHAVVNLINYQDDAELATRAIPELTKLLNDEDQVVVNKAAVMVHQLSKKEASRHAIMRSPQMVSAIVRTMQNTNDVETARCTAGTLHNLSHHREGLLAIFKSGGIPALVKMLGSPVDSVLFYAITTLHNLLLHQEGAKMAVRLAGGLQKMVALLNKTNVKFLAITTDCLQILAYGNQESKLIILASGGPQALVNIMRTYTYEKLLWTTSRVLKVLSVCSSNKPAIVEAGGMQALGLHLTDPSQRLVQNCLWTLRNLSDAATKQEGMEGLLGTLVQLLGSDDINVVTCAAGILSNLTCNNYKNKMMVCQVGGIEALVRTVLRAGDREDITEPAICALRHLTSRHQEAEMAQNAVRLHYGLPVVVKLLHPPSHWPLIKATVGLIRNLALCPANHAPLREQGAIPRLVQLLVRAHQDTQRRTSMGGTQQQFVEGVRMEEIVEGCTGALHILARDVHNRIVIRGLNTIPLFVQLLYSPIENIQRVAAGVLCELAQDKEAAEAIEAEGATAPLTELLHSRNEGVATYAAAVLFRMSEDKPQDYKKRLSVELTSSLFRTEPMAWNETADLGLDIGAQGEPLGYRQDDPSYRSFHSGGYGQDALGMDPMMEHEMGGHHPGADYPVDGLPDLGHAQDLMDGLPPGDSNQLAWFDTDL


Columns and labels:
Assay in all cases: cell-based or functional assay
[1] = target: T1, beta-catenin in DLD1 TCF/LEF luciferase …
[2] = target: T2, B-cat-Halo (beta-catenin HaloTag …)
[3] = target: T3, B-cat-Halo

| Binder | DLD1 reporter assay Abs IC50 [1] | NanoBRET Abs IC50 [2] | NanoBRET Abs IC50 [3] |
| --- | --- | --- | --- |
| Ac-[αAllylPro]D[tBuAla][B5(4)]DDAAFN[PyrS2″][Phe(2-Cl)][Bta]Q-NHEt (staple 1-4, 4-11) [I-1079] | 14.5 µM | 19.7 µM |  |
| Ac-[αAllylPro]D[tBuAla][B5(3)]D[TfeGA]AAFF[PyrS2″]F[Bta]Q-NH2 (staple 1-4, 4-11) [I-988] |  |  | 13.9 µM |
| Ac-[αAllylPro]D[tBuAla][B5(3)]D[TfeGA]AAFF[PyrS2″][Phe(2-Cl)][Bta]S-NH2 (staple 1-4, 4-11) [I-990] |  |  | 8.8 µM |

Continued, values first:

| DLD1 reporter assay Abs IC50 [1] | NanoBRET Abs IC50 [2] | NanoBRET Abs IC50 [3] | Binder |
| --- | --- | --- | --- |
| 17.2 µM | > 20 µM |  | Ac-[αAllylPro]D[tBuAla][B5(4)]DDAAFN[PyrS2″][Phe(2-Cl)][Bta][Leu(ol)] (staple 1-4, 4-11) [I-1080] |
| 10 µM | 16.7 µM |  | Ac-[αAllylPro]D[tBuAla][B5(3)]DDAAFN[PyrS2″][Phe(2-Cl)][Bta]-Alaol (staple 1-4, 4-11) [I-1081] |

Source: patent publication US20240116985A1 (published 2024)
